target: T1, human PD-1-His (human, UniProt Q15116 25-167, limits assumed); experiment: Octet
T1 construct: Antigen of the Octet assays; not shown: His tag
T1 sequence (Q15116 25-167 limits assumed): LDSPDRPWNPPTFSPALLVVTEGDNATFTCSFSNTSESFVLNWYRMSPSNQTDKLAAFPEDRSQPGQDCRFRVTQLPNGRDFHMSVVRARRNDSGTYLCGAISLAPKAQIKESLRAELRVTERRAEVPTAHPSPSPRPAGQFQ

Row | Binder | Kd [nM] | koff [s⁻¹] | kon [M⁻¹ s⁻¹]
1 | H1.79_L1 (antibody, V domains shown, also called VH-S60Y; Kabat 55) VH: EVQLVESGGGLVQPGGSLRLSCAASGFTFSSFGMHWVRQAPGKGLEWVSYISSGSYIIYYADSVKGRFTISRDNAKNSLYLQMNSLRAEDTAVYYCARGGRLVWSPDYWGQGTLVTVSS VL: DIVMTQSPDSLAVSLGERATINCKSSQSLLNSGNQKNYLTWYQQKPGQPPKLLIYWASTRESGVPDRFTGSGSGTDFTLTISSLQAEDVAVYYCQNDYSYPFTFGSGTKLEIKR | 43.4 | 0.00686 | 158000
2 | H1.85_L1 (antibody, V domains shown, also called VH-I61A; Kabat 56) VH: EVQLVESGGGLVQPGGSLRLSCAASGFTFSSFGMHWVRQAPGKGLEWVSYISSGSSAIYYADSVKGRFTISRDNAKNSLYLQMNSLRAEDTAVYYCARGGRLVWSPDYWGQGTLVTVSS VL: DIVMTQSPDSLAVSLGERATINCKSSQSLLNSGNQKNYLTWYQQKPGQPPKLLIYWASTRESGVPDRFTGSGSGTDFTLTISSLQAEDVAVYYCQNDYSYPFTFGSGTKLEIKR | 132 | 0.0618 | 467000
3 | H1.80_L1 (antibody, V domains shown, also called VH-I61V; Kabat 56) VH: EVQLVESGGGLVQPGGSLRLSCAASGFTFSSFGMHWVRQAPGKGLEWVSYISSGSSVIYYADSVKGRFTISRDNAKNSLYLQMNSLRAEDTAVYYCARGGRLVWSPDYWGQGTLVTVSS VL: DIVMTQSPDSLAVSLGERATINCKSSQSLLNSGNQKNYLTWYQQKPGQPPKLLIYWASTRESGVPDRFTGSGSGTDFTLTISSLQAEDVAVYYCQNDYSYPFTFGSGTKLEIKR | 207 | 0.0466 | 226000
4 | H1.90_L1 (antibody, V domains shown, also called VH-I62L; Kabat 57) VH: EVQLVESGGGLVQPGGSLRLSCAASGFTFSSFGMHWVRQAPGKGLEWVSYISSGSSILYYADSVKGRFTISRDNAKNSLYLQMNSLRAEDTAVYYCARGGRLVWSPDYWGQGTLVTVSS VL: DIVMTQSPDSLAVSLGERATINCKSSQSLLNSGNQKNYLTWYQQKPGQPPKLLIYWASTRESGVPDRFTGSGSGTDFTLTISSLQAEDVAVYYCQNDYSYPFTFGSGTKLEIKR | 51.5 | 0.00727 | 141000
5 | H1.92_L1 (antibody, V domains shown, also called VH-I62T; Kabat 57) VH: EVQLVESGGGLVQPGGSLRLSCAASGFTFSSFGMHWVRQAPGKGLEWVSYISSGSSITYYADSVKGRFTISRDNAKNSLYLQMNSLRAEDTAVYYCARGGRLVWSPDYWGQGTLVTVSS VL: DIVMTQSPDSLAVSLGERATINCKSSQSLLNSGNQKNYLTWYQQKPGQPPKLLIYWASTRESGVPDRFTGSGSGTDFTLTISSLQAEDVAVYYCQNDYSYPFTFGSGTKLEIKR | 47.8 | 0.00851 | 178000
6 | H1.91_L1 (antibody, V domains shown, also called VH-I62F; Kabat 57) VH: EVQLVESGGGLVQPGGSLRLSCAASGFTFSSFGMHWVRQAPGKGLEWVSYISSGSSIFYYADSVKGRFTISRDNAKNSLYLQMNSLRAEDTAVYYCARGGRLVWSPDYWGQGTLVTVSS VL: DIVMTQSPDSLAVSLGERATINCKSSQSLLNSGNQKNYLTWYQQKPGQPPKLLIYWASTRESGVPDRFTGSGSGTDFTLTISSLQAEDVAVYYCQNDYSYPFTFGSGTKLEIKR | 61 | 0.00917 | 150000
7 | H1.89_L1 (antibody, V domains shown, also called VH-I62V; Kabat 57) VH: EVQLVESGGGLVQPGGSLRLSCAASGFTFSSFGMHWVRQAPGKGLEWVSYISSGSSIVYYADSVKGRFTISRDNAKNSLYLQMNSLRAEDTAVYYCARGGRLVWSPDYWGQGTLVTVSS VL: DIVMTQSPDSLAVSLGERATINCKSSQSLLNSGNQKNYLTWYQQKPGQPPKLLIYWASTRESGVPDRFTGSGSGTDFTLTISSLQAEDVAVYYCQNDYSYPFTFGSGTKLEIKR | 43.2 | 0.00669 | 155000

target: T1, human PD-1-His; experiment: Octet; remark: another data set of the same source

Row | Binder | Kd [nM] | koff [s⁻¹] | kon [M⁻¹ s⁻¹]
8 | H1.166_L1 (antibody, V domains shown, also called VH-S113D; Kabat 100a) VH: EVQLVESGGGLVQPGGSLRLSCAASGFTFSSFGMHWVRQAPGKGLEWVSYISSGSSIIYYADSVKGRFTISRDNAKNSLYLQMNSLRAEDTAVYYCARGGRLVWDPDYWGQGTLVTVSS VL: DIVMTQSPDSLAVSLGERATINCKSSQSLLNSGNQKNYLTWYQQKPGQPPKLLIYWASTRESGVPDRFTGSGSGTDFTLTISSLQAEDVAVYYCQNDYSYPFTFGSGTKLEIKR | 189 | 0.0457 | 242000
9 | H1_L1.7 (antibody, V domains shown, also called VL-N31G; Kabat 27d) VH: EVQLVESGGGLVQPGGSLRLSCAASGFTFSSFGMHWVRQAPGKGLEWVSYISSGSSIIYYADSVKGRFTISRDNAKNSLYLQMNSLRAEDTAVYYCARGGRLVWSPDYWGQGTLVTVSS VL: DIVMTQSPDSLAVSLGERATINCKSSQSLLGSGNQKNYLTWYQQKPGQPPKLLIYWASTRESGVPDRFTGSGSGTDFTLTISSLQAEDVAVYYCQNDYSYPFTFGSGTKLEIKR | 84.6 | 0.00875 | 103000
10 | H1_L1.13 (antibody, V domains shown, also called VL-S32H; Kabat 27e) VH: EVQLVESGGGLVQPGGSLRLSCAASGFTFSSFGMHWVRQAPGKGLEWVSYISSGSSIIYYADSVKGRFTISRDNAKNSLYLQMNSLRAEDTAVYYCARGGRLVWSPDYWGQGTLVTVSS VL: DIVMTQSPDSLAVSLGERATINCKSSQSLLNHGNQKNYLTWYQQKPGQPPKLLIYWASTRESGVPDRFTGSGSGTDFTLTISSLQAEDVAVYYCQNDYSYPFTFGSGTKLEIKR | 103 | 0.0106 | 102000
11 | H1_L1.6 (antibody, V domains shown, also called VL-N31T; Kabat 27d) VH: EVQLVESGGGLVQPGGSLRLSCAASGFTFSSFGMHWVRQAPGKGLEWVSYISSGSSIIYYADSVKGRFTISRDNAKNSLYLQMNSLRAEDTAVYYCARGGRLVWSPDYWGQGTLVTVSS VL: DIVMTQSPDSLAVSLGERATINCKSSQSLLTSGNQKNYLTWYQQKPGQPPKLLIYWASTRESGVPDRFTGSGSGTDFTLTISSLQAEDVAVYYCQNDYSYPFTFGSGTKLEIKR | 64.6 | 0.00777 | 120000
12 | H1_L1.11 (antibody, V domains shown, also called VL-S32Q; Kabat 27e) VH: EVQLVESGGGLVQPGGSLRLSCAASGFTFSSFGMHWVRQAPGKGLEWVSYISSGSSIIYYADSVKGRFTISRDNAKNSLYLQMNSLRAEDTAVYYCARGGRLVWSPDYWGQGTLVTVSS VL: DIVMTQSPDSLAVSLGERATINCKSSQSLLNQGNQKNYLTWYQQKPGQPPKLLIYWASTRESGVPDRFTGSGSGTDFTLTISSLQAEDVAVYYCQNDYSYPFTFGSGTKLEIKR | 103 | 0.00997 | 96500
13 | H1_L1.12 (antibody, V domains shown, also called VL-S32V; Kabat 27e) VH: EVQLVESGGGLVQPGGSLRLSCAASGFTFSSFGMHWVRQAPGKGLEWVSYISSGSSIIYYADSVKGRFTISRDNAKNSLYLQMNSLRAEDTAVYYCARGGRLVWSPDYWGQGTLVTVSS VL: DIVMTQSPDSLAVSLGERATINCKSSQSLLNVGNQKNYLTWYQQKPGQPPKLLIYWASTRESGVPDRFTGSGSGTDFTLTISSLQAEDVAVYYCQNDYSYPFTFGSGTKLEIKR | 111 | 0.0115 | 104000
14 | H1_L1.14 (antibody, V domains shown, also called VL-S32K; Kabat 27e) VH: EVQLVESGGGLVQPGGSLRLSCAASGFTFSSFGMHWVRQAPGKGLEWVSYISSGSSIIYYADSVKGRFTISRDNAKNSLYLQMNSLRAEDTAVYYCARGGRLVWSPDYWGQGTLVTVSS VL: DIVMTQSPDSLAVSLGERATINCKSSQSLLNKGNQKNYLTWYQQKPGQPPKLLIYWASTRESGVPDRFTGSGSGTDFTLTISSLQAEDVAVYYCQNDYSYPFTFGSGTKLEIKR | 170 | 0.0141 | 83200
15 | H1_L1.10 (antibody, V domains shown, also called VL-S32A; Kabat 27e) VH: EVQLVESGGGLVQPGGSLRLSCAASGFTFSSFGMHWVRQAPGKGLEWVSYISSGSSIIYYADSVKGRFTISRDNAKNSLYLQMNSLRAEDTAVYYCARGGRLVWSPDYWGQGTLVTVSS VL: DIVMTQSPDSLAVSLGERATINCKSSQSLLNAGNQKNYLTWYQQKPGQPPKLLIYWASTRESGVPDRFTGSGSGTDFTLTISSLQAEDVAVYYCQNDYSYPFTFGSGTKLEIKR | 82.9 | 0.00755 | 91000
16 | H1_L1.9 (antibody, V domains shown, also called VL-S32T; Kabat 27e) VH: EVQLVESGGGLVQPGGSLRLSCAASGFTFSSFGMHWVRQAPGKGLEWVSYISSGSSIIYYADSVKGRFTISRDNAKNSLYLQMNSLRAEDTAVYYCARGGRLVWSPDYWGQGTLVTVSS VL: DIVMTQSPDSLAVSLGERATINCKSSQSLLNTGNQKNYLTWYQQKPGQPPKLLIYWASTRESGVPDRFTGSGSGTDFTLTISSLQAEDVAVYYCQNDYSYPFTFGSGTKLEIKR | 46.7 | 0.005 | 107000
17 | H1_L1.8 (antibody, V domains shown, also called VL-N31Y; Kabat 27d) VH: EVQLVESGGGLVQPGGSLRLSCAASGFTFSSFGMHWVRQAPGKGLEWVSYISSGSSIIYYADSVKGRFTISRDNAKNSLYLQMNSLRAEDTAVYYCARGGRLVWSPDYWGQGTLVTVSS VL: DIVMTQSPDSLAVSLGERATINCKSSQSLLYSGNQKNYLTWYQQKPGQPPKLLIYWASTRESGVPDRFTGSGSGTDFTLTISSLQAEDVAVYYCQNDYSYPFTFGSGTKLEIKR | 307 | 0.0247 | 80600
18 | H1_L1.2 (antibody, V domains shown, also called VL-N31E; Kabat 27d) VH: EVQLVESGGGLVQPGGSLRLSCAASGFTFSSFGMHWVRQAPGKGLEWVSYISSGSSIIYYADSVKGRFTISRDNAKNSLYLQMNSLRAEDTAVYYCARGGRLVWSPDYWGQGTLVTVSS VL: DIVMTQSPDSLAVSLGERATINCKSSQSLLESGNQKNYLTWYQQKPGQPPKLLIYWASTRESGVPDRFTGSGSGTDFTLTISSLQAEDVAVYYCQNDYSYPFTFGSGTKLEIKR | 152 | 0.0228 | 150000
19 | H1_L1.5 (antibody, V domains shown, also called VL-N31L; Kabat 27d) VH: EVQLVESGGGLVQPGGSLRLSCAASGFTFSSFGMHWVRQAPGKGLEWVSYISSGSSIIYYADSVKGRFTISRDNAKNSLYLQMNSLRAEDTAVYYCARGGRLVWSPDYWGQGTLVTVSS VL: DIVMTQSPDSLAVSLGERATINCKSSQSLLLSGNQKNYLTWYQQKPGQPPKLLIYWASTRESGVPDRFTGSGSGTDFTLTISSLQAEDVAVYYCQNDYSYPFTFGSGTKLEIKR | 32.9 | 0.00569 | 173000

From patent US20240294593A1 (Genentech, published 2024)
